For 1 substance, amount of PrB not causing fragmentation of lactase (30° C., 20 hours, SDS-PAGE) results are on record in patent US20190075806A1, “PROTEINASE B AND LACTASE SOLUTION USING ITS PROPERTIES AND METHOD FOR PRODUCING THE SAME” (GODO SHUSEI CO., LTD., priority 2016, published 2019).

For the experiment, the target named is neutral lactase (GODO-YNL2; unfragmented high molecular fraction F-1, about 120 kDa) (yeast, Kluyveromyces genus) (UniProt P00723). The experiment in a line: cell-based or functional assay.
neutral lactase (GODO-YNL2; unfragmented high molecular fraction F-1, about 120 kDa) (yeast, Kluyveromyces genus), sequence (P00723 whole entry, the tested form may be a part): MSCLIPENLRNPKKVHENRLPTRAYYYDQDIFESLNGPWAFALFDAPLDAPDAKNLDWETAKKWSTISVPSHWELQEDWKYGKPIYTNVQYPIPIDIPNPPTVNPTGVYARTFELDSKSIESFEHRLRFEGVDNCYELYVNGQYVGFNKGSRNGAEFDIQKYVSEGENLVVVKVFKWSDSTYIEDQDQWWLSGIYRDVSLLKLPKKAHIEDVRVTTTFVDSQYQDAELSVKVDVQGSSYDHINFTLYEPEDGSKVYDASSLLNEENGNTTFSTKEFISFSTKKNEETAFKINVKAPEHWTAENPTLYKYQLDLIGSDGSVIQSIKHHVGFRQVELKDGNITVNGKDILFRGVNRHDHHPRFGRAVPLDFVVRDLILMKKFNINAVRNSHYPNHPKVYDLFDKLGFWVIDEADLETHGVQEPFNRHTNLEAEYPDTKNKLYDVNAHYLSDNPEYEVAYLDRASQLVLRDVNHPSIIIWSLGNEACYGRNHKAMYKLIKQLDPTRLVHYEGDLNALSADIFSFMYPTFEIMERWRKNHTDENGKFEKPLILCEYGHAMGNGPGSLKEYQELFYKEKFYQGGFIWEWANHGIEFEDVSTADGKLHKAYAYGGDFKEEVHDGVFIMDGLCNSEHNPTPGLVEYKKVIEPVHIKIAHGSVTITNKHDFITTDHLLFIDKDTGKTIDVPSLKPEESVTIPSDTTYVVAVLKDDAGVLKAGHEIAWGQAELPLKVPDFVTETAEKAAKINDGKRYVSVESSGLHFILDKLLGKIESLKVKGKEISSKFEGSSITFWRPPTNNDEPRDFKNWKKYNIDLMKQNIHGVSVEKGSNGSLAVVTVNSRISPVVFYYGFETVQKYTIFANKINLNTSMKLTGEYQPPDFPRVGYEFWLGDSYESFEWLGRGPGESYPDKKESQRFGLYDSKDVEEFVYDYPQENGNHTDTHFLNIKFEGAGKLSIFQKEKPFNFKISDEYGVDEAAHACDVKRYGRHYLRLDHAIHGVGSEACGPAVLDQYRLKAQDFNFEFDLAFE

In the case of “proteinase B derived from Kluyveromyces lactis (mature enzyme)”, the amount of PrB not causing fragmentation of lactase (30° C., 20 hours, SDS-PAGE) is 0.26 ng per NLU.
